Laboratory results reported in publication PMC12521527, “In vivo self-assembled nano-PROTAC for the dual degradation of AR and HSP90 to overcome castration-resistant prostate cancer resistance” (Signal Transduction and Targeted Therapy, 2025).
Numbered stars: 1 amine (or outer) side, 2 acyl side, 3 side chain; on linkers, the order of the positions; unused ones are H or OH. Square brackets hold non-standard residues; d marks the D form. Peptide text beside a SMILES is read from it. * marks the point of attachment. X2 = CC1(C)C(=O)N(c2ccc(C#N)c(C(F)(F)F)c2)C(=S)N1c1ccc(C(=O)*)c(F)c1; X1 = O=C1CCC(N2C(=O)c3cccc(N(CC(=O)[*:2])[*:1])c3C2=O)C(=O)N1; EuK = O=C(O)CC[C@H](NC(=O)N[C@@H](CCCCN*)C(=O)O)C(=O)O; 2Nal = N[C@@H](Cc1ccc2ccccc2c1)C(=O)O

Tests used:
[1] = ThT assay of self-assembly (critical assembly concentration, assembly kinetics); assay type: physicochemical
[2] = In vivo biocompatibility in healthy mice; conditions: healthy BALB/c mice
Method: Fig. 7 In vivo antitumor efficacy of Psa-AR. a Schematic illustration of the tumor inoculation and treatment protocol for 22Rv1 xenograft mice. (n = 6 per group) b Observation of the tumor inhibitory effect on 22Rv1 xenograft mice in PBS, enzalutamide, pimitespib, Enza, Pimi, and Psa-AR (30 mg/kg in 200 μL of PBS) over 20 days of treatment. (Enza, Pimi: Combination therapy with enzalutamide (AR antagonist) and Pimitespib (HSP90 inhibitor)). c Kaplan‒Meier survival curves of 22Rv1 xenograft mice in different groups over 20 days of treatment. d Changes in the body weights of 22Rv1 xenograft mice in different groups over 20 days of treatment. e Terminal deoxynucleotidyl transferase (TdT) dUTP nick-end labeling (TUNEL) staining of tumors after treatment with PBS, enzalutamide, pimitespib, ENZ, Pimi or Psa-AR (30 mg/kg in 200 μL of PBS) for 20 days. Scale bar: 50 μm. f Hematoxylin‒eosin (H&E) staining of the main organs after treatment with PBS or Psa-AR (30 mg/kg in 200 μL of PBS) for 24 h. Scale bar: 50 μm. g–j Blood biochemistry data, including ALT, AST, ALP, TP, ALB, GLOB, BUN, and CRE levels, of the mice after treatment with Psa-AR (20 mg/kg in 200 μL of PBS) for 1 day or 14 days (n = 3 per group). p values were determined via one-way ANOVA followed by post hoc Tukey’s test. The data are presented as the means ± SDs
To thoroughly evaluate the in vivo biocompatibility of the Psa-AR degradation system, we performed comprehensive toxicological assessments in healthy BALB/c mice. At 24 h post-administration of either PBS or Psa-AR (30 mg/kg, n = 3 per group), we collected major organs (heart, liver, spleen, lungs, and kidneys) along with serum samples for histopathological and biochemical analysis. […] These comprehensive biosafety evaluations confirmed that the Psa-AR system maintains exceptional biocompatibility, with no acute toxicity observed in vital organs or systemic metabolic pathways. The combined histopathological and biochemical evidence strongly supports the clinical translatability of this targeted protein degradation platform.

22Rv1 xenograft tumor = test: Antitumor efficacy in 22Rv1 xenograft mice; assay type: in vivo, BALB/c nude mice; conditions: for tumor volume / median survival: n = 6
Source text: To evaluate the therapeutic potential and superiority of Psa-AR in prostate cancer, we established subcutaneous xenograft tumor models using AR-mutant 22Rv1 cells.[51] All procedures strictly complied with the Guide for the Care and Use of Laboratory Animals and were approved by the Committee for Animal Research of the National Center for Nanoscience and Technology. When the tumor volume reached ~100 mm³, 22Rv1-bearing mice were randomized into three groups (n = 6/group): the PBS control, Psa-AR, and P-AR groups. Treatments were administered via tail vein injection every other day for five cycles. The tumor volume and body weight were monitored every other day for 20 days (Fig. 6a). […] The individual tumor growth curves for each group are presented in Supplementary Fig. 20. No obvious body weight loss was observed during treatment (Fig. 6c). […] To elucidate the mechanistic basis of tumor suppression, we quantitatively assessed AR and HSP90 protein expression in excised tumor tissues through IF. […] This dual-target degradation profile directly correlates with the observed therapeutic efficacy, validating the assembly driven target engagement and degradation strategy. […] To address the critical limitations of conventional PROTACs, particularly the Hook effect-induced nonlinear pharmacokinetics and narrow therapeutic window. We rigorously evaluated the dose-responsive antitumor efficacy of Psa-AR in 22Rv1 xenograft models. Mice bearing subcutaneous tumors received escalating doses (10, 20, or 30 mg/kg) via intravenous administration every 48 h for five consecutive treatment cycles. The tumor volume and body weight were evaluated for 20 days. Tumor volume was suppressed in a dose-dependent manner, with a mean tumor volume of […], a mean tumor volume of 536 mm^3 at 20 mg/kg and a mean tumor volume of 220 mm^3 at 10 mg/kg (Fig. 6h). The individual tumor growth curves for each group are presented in Supplementary Fig. 21. […] IF analysis of tumor sections provided spatially resolved dose-dependent quantification of AR and HSP90 proteolysis. […] Collectively, the dose-dependent tumor suppression and coordinated target proteolysis observed in the 22Rv1 xenograft model mechanistically validated the therapeutic superiority of in situ self-assembled Psa-AR. To systematically evaluate the therapeutic advantages of the dual-protein targeting strategy of Psa-AR through simultaneous degradation of AR and HSP90 in overcoming tumor drug resistance, this study compared the antitumor efficacy of Psa-AR with that of current clinical regimens (including the AR inhibitor enzalutamide, the HSP90 inhibitor pimitespib, and their combination) in 22Rv1 xenograft models (Fig. 7a). The experimental protocol was designed as follows: When the tumor volume reached ~100 mm³, the tumor-bearing mice were
Fig. 6 In vivo antitumor efficacy of Psa-AR. a Schematic illustration of the tumor inoculation and treatment protocol for 22Rv1 xenograft mice. (n = 6 per group) b Observation of the tumor inhibitory effect on 22Rv1 xenograft mice in PBS, P-AR, or Psa-AR (20 mg/kg in 200 μL of PBS) over 20 days of treatment. c Body weight changes in 22Rv1 xenograft mice in different treatment groups over 20 days. d Kaplan‒Meier survival curves of 22Rv1 xenograft mice in different groups over 20 days of treatment. e Immunofluorescence analysis of AR protein levels in 22Rv1 tumor tissues after treatment with PBS, P-AR, or Psa-AR (20 mg/kg in 200 μL of PBS) for 20 days. Scale bar: 20 μm. f Immunofluorescence analysis of the HSP90 protein levels in 22Rv1 tumor tissues after treatment with PBS, P-AR, or Psa-AR (20 mg/kg in 200 μL of PBS) for 20 days. Scale bar: 20 μm. g Terminal deoxynucleotidyl transferase (TdT) dUTP nick-end labeling (TUNEL) staining of tumors after treatment with PBS, P-AR, or Psa-AR (20 mg/kg in 200 μL of PBS) for 20 days. […]

SMILES: CC1(C)C(=O)N(c2ccc(C#N)c(C(F)(F)F)c2)C(=S)N1c1ccc(C(=O)NCCCC[C@H](NC(=O)CNc2cccc3c2C(=O)N(C2CCC(=O)NC2=O)C3=O)C(=O)N[C@@H](CS)C(=O)N[C@@H](CCC(N)=O)C(=O)N[C@@H](Cc2ccc(O)cc2)C(=O)N[C@@H](CC(N)=O)C(=O)N[C@@H](CCC(N)=O)C(=O)N[C@@H](Cc2ccc(O)cc2)C(=O)N[C@@H](Cc2ccc(O)cc2)C(=O)N[C@@H](Cc2ccc3ccccc3c2)C(=O)NCCCC[C@H](NC(=O)N[C@@H](CCC(=O)O)C(=O)O)C(=O)O)c(F)c1 (stereo partly drawn) [Psa-AR] (H-[X1]K(X2)CQYNQYY[2Nal]-EuK)
- lowering of CAC by PSMA binding ([1]; ThT assay, 95.5–10.9 μM): 8.76 fold
- time to full assembly equilibrium, PSMA-bound ([1]; ThT kinetic curve, 40 μM, PSMA added): 12 h
- t1/2 of self-assembly (50% assembly), PSMA-bound ([1]; ThT kinetic curve, 40 μM, PSMA added, n = 3): 1.4 h
- time to full assembly equilibrium, unbound ([1]; ThT kinetic curve, 40 μM, without PSMA): 60 h
- t1/2 of self-assembly (50% assembly), unbound ([1]; ThT kinetic curve, 40 μM, without PSMA, n = 3): 11.4 h
- critical assembly concentration (CAC) with PSMA added ([1]; standard ThT assay, PSMA added, n = 3, P-AR tested up to 50 μM): 10.9 µM
- critical assembly concentration (CAC) ([1]; standard ThT assay, without PSMA, n = 3): 95.5 µM
- routine blood analysis (WBC, NEU, LYM, RBC, PLT, HGB, MPV) [2]: no obvious changes were detected
- serum biochemistry (ALT, AST, ALP, TP, ALB, GLOB, BUN, CRE) versus PBS ([2]; 30 mg/kg, 24 h, n = 3): not significantly different between the groups
- H&E histopathology of major organs (heart, liver, spleen, lungs, kidneys) ([2]; 30 mg/kg, 24 h post-administration, n = 3): no observable pathological changes
- extension of median survival compared with P-AR controls (22Rv1 xenograft tumor; 20 mg/kg study): 1.8 fold
- extension of median survival compared with PBS controls (22Rv1 xenograft tumor; 20 mg/kg study): 2.2 fold
- tumor volume (22Rv1 xenograft tumor; 20 mg/kg tail vein every other day, five cycles, 20 days, PBS 1003 mm^3): 347 mm^3
- TUNEL apoptotic index of tumor sections (22Rv1 xenograft tumor; 20 mg/kg, 20 days, compared with PBS control and P-AR): significant increase in the apoptotic index
- AR and HSP90 protein expression in excised tumor tissues (22Rv1 xenograft tumor; IF, 20 mg/kg, 20 days): AR and HSP90 reduction
- median survival (22Rv1 xenograft tumor; K-M analysis, 20 mg/kg study, PBS 22 days): 48 days
- TUNEL analysis of tumor tissue sections (22Rv1 xenograft tumor; comparison study, 30 mg/kg, 20 days): increased activation of tumor apoptosis
- tumor volume (22Rv1 xenograft tumor; comparison study, 20 days, Psa-AR 30 mg/kg i.v. every 2 days x5, enzalutamide 25 mg/kg, pimitespib 15 mg/kg, PBS 1017 mm^3): 220 mm^3
- median survival (22Rv1 xenograft tumor; comparison study, PBS 21 days): 46 days
- body weight during the monitoring cycle (22Rv1 xenograft tumor; dose study, 10, 20, or 30 mg/kg, 20 days): no significant change in the body weight
- mean tumor volume at 20 mg/kg (22Rv1 xenograft tumor; dose study, intravenous every 48 h, five cycles, 20 days): 536 mm^3
